Each block holds one binder with its values, some of them ahead of it.
What was measured:
BC2T K4E (human) = target: T1, BC2T K4E (human); test: library pulldown, LC-MS of supernatant; ratio vs GFP-Nb control (0=captured, 1=not captured)
T1 sequence (peptide, N-terminal acetyl, C-terminal amide): PDREAAVSHWQQ

[1] = target: mCherry tagged with the improved BC2T variations; test: capture on the BC2 nanotrap, SDS-PAGE and Coomassie, FIG. 19a
BC2T Q11P = target: T2, BC2T Q11P; test: positional peptide library pulldown on immobilised Nb, LC-MS of supernatant; signal ratio to control GFP-Nb (1 = not captured, near 0 = captured)
T2 sequence (peptide, N-terminal acetyl; C-terminal amide): PDRKAAVSHWPQ

BC2T S8D = target: T3, BC2T S8D; test: as above
T3 sequence (peptide, N-terminal acetyl; C-terminal amide): PDRKAAVDHWQQ

BC2T S8K = target: T4, BC2T S8K; test: as above
T4 sequence (peptide, N-terminal acetyl; C-terminal amide): PDRKAAVKHWQQ

BC2T R3Q = target: T5, BC2T R3Q; test: as above
T5 sequence (peptide, N-terminal acetyl; C-terminal amide): PDQKAAVSHWQQ

BC2T R3S = target: T6, BC2T R3S; test: as above
T6 sequence (peptide, N-terminal acetyl; C-terminal amide): PDSKAAVSHWQQ

ratio (BC2T K4E (human)): 0.9
B1: BC2-NbR106S (VHH, not shown: small tags and cut ends)
VHH: QVQLVESGGGLVQPGGSLTLSCTASGFTLDHYDIGWFRQAPGKEREGVSCINNSDDDTYYADSVKGRFTIFMDNAKDTVYLQMNSLKPEDTAIYYCAEARGCKRGSYEYDFWGQGTQVTVSS

percent protein bound [1]: < 100%
ratio (BC2T Q11P): 0.6
ratio (BC2T S8D): 0.8
ratio (BC2T S8K): 0.8
B2: BC2 nanobody (VHH, not shown: small tags and cut ends)
VHH: QVQLVESGGGLVQPGGSLTLSCTASGFTLDHYDIGWFRQAPGKEREGVSCINNSDDDTYYADSVKGRFTIFMDNAKDTVYLQMNSLKPEDTAIYYCAEARGCKRGRYEYDFWGQGTQVTVSS

ratio (BC2T R3Q): 0.8
ratio (BC2T R3S): 0.8
B3: BC2-NbR106E (VHH)
VHH: QVQLVESGGGLVQPGGSLTLSCTASGFTLDHYDIGWFRQAPGKEREGVSCINNSDDDTYYADSVKGRFTIFMDNAKDTVYLQMNSLKPEDTAIYYCAEARGCKRGEYEYDFWGQGTQVTVSS
